In paper PMC10841737 (Biochemistry, 2023):
Like-named read-outs stand apart in the source and are kept apart here.

Tests used:
[1] = molecular target: T1, S. cerevisiae Pif1 helicase (S. cerevisiae, UniProt P07271 46-859); experiment: fluorescence polarisation
T1 sequence (looked up): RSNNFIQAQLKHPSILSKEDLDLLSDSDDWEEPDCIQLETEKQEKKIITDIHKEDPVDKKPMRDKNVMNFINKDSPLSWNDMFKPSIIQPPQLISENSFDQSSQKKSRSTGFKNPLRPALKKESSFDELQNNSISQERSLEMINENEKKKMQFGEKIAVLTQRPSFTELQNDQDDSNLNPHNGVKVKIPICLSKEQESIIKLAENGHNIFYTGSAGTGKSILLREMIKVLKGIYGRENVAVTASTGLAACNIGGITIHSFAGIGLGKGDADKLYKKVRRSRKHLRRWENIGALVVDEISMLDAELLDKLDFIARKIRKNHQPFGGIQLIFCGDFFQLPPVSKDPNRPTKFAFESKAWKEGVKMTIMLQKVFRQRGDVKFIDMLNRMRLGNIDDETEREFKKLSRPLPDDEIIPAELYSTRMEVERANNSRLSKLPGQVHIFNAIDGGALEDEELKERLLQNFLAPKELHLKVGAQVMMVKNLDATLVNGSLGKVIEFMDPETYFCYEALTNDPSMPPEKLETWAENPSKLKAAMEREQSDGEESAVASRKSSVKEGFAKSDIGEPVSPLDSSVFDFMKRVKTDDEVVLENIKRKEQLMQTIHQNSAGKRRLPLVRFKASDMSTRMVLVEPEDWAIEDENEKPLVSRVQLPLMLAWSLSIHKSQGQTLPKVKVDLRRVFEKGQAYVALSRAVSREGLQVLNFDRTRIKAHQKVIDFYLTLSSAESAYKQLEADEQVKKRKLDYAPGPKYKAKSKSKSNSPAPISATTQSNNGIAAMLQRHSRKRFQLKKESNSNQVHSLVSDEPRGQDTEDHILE

[2] = molecular target: T2, Cy5-Sub1 (Sub1-Cys) (Saccharomyces cerevisiae, UniProt P54000 1-292+=C, internal_change); experiment: filter binding
T2 sequence: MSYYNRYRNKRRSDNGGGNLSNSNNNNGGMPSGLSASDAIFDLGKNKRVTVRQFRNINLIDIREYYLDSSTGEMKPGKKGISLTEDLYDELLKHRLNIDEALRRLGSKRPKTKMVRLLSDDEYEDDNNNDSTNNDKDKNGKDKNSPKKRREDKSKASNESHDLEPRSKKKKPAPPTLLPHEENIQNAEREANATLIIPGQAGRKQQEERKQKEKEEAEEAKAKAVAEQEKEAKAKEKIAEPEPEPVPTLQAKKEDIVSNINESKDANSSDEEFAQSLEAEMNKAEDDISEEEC

[3] = molecular target: T3, Sub1 (Saccharomyces cerevisiae, UniProt P54000 1-292); experiment: filter binding
T3 sequence: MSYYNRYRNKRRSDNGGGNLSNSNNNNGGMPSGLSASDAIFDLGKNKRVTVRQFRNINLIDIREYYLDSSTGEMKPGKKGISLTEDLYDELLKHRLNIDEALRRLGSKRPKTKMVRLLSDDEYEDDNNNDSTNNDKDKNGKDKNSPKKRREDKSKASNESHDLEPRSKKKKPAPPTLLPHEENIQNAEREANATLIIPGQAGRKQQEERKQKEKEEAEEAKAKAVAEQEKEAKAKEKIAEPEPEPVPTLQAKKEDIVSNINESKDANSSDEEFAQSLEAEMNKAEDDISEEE

[4] = molecular target: T4, Cdc13 (Saccharomyces cerevisiae, UniProt P32797 1-924); experiment: EMSA
T4 sequence: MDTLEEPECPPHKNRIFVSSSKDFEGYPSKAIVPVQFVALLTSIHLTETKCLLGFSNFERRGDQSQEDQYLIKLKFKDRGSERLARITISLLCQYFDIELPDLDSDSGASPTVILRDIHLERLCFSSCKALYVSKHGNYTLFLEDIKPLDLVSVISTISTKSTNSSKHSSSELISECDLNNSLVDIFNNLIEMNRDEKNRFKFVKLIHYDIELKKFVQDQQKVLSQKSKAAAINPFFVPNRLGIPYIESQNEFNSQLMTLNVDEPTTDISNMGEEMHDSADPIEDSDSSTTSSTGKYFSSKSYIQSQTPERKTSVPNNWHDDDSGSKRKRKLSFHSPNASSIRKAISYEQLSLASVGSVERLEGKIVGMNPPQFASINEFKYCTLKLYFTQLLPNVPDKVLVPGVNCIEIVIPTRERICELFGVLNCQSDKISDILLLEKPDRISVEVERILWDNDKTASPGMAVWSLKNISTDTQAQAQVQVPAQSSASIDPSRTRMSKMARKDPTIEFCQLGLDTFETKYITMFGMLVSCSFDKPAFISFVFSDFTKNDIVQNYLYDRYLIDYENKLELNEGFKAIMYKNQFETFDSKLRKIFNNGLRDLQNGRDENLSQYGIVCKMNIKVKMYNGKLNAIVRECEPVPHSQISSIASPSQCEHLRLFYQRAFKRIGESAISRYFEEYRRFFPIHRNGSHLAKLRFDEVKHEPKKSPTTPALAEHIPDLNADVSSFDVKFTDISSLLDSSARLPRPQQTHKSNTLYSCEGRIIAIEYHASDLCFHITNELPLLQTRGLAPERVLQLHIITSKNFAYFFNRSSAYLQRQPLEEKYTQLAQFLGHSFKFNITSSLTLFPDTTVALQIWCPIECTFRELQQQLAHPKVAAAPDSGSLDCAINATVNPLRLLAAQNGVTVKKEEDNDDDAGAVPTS

[5] = molecular target: T4, Cdc13; experiment: EMSA; remark: listed apart in the source
[6] = molecular target: T4, Cdc13; experiment: EMSA; remark: listed apart in the source
[7] = molecular target: T4, Cdc13; experiment: EMSA; remark: listed apart in the source
[8] = molecular target: T2, Cy5-Sub1 (Sub1-Cys); experiment: stopped-flow FRET dissociation

B1: Cy5-labeled Sub1 (Sub1-Cys variant labeled with Cy5-maleimide) (natural protein, yeast (S. cerevisiae), UniProt P54000 1-292, looked up)
chain: MSYYNRYRNKRRSDNGGGNLSNSNNNNGGMPSGLSASDAIFDLGKNKRVTVRQFRNINLIDIREYYLDSSTGEMKPGKKGISLTEDLYDELLKHRLNIDEALRRLGSKRPKTKMVRLLSDDEYEDDNNNDSTNNDKDKNGKDKNSPKKRREDKSKASNESHDLEPRSKKKKPAPPTLLPHEENIQNAEREANATLIIPGQAGRKQQEERKQKEKEEAEEAKAKAVAEQEKEAKAKEKIAEPEPEPVPTLQAKKEDIVSNINESKDANSSDEEFAQSLEAEMNKAEDDISEEEC
modifications: Cy5 (maleimide) on the cysteine added at the C-terminal end; one molecule of Cy5 dye per protein
[1]
  Kd: 53 nM

## TTTTTTTTTTTTTTTGAGGGTGGGTAGGGTGGGTAA (structured_DNA) [G4DNA]
[2]
  Kd: 2.9 ± 1.3 nM
[3]
  Kd: 0.86 ± 0.18 nM

## GTGTGGGTGTG (ssDNA) [Tel11 telomere seq]
[4]
  apparent K (half saturation): 15.3 ± 0.9 nM

## CGCTGATGTCGC (ssDNA) [12 nt Mixed seq]
[5]
  apparent K (half saturation): 124 ± 8.8 nM

## CTGTGGGTGTG (ssDNA) [Tel11 (G1C)]
[6]
  apparent K (half saturation): 150 ± 14.7 nM

## GTGTGGCTCTG (ssDNA) [Tel11 (G7C/G9C)]
[7]
  apparent K (half saturation): 96.7 ± 3 nM

## TTTTTTTTTTTTTTGAGGGTGGGTAGGGTGGGT (structured_DNA) [Cy3-G4 DNA]
[8]
  binding result: binds
